Reference: the supplement of paper PMC9112550, “Optimization of the antimicrobial peptide Bac7 by deep mutational scanning” (BMC Biology, 2022)

Test system: Escherichia coli TOP10
Assay: shrunken log2 fold change of peptide-encoding DNA abundance (4.5 h post-induction vs induction); higher = less antimicrobial activity (less host growth inhibition)
Details: time post-induction: 4.5 h; library: site-saturation at positions 5, 18, 19, 20
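Also: peptides expressed intracellularly from a pBAD plasmid library in pooled LB shake-flask culture, induced with 0.3% L-arabinose, DNA abundance read by NGS, three biological replicates, DESeq2 with apeglm shrinkage.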

RRIRPRPPRLPRPRPRPSDLPRP
shrunken log2 fold change: -0.385

RRIRPRPPRLPRPRPRPSGCPRP
shrunken log2 fold change: 0.142

RRIRPRPPRLPRPRPRPSGIPRP
shrunken log2 fold change: -0.126

RRIRPRPPRLPRPRPRPSIPPRP
shrunken log2 fold change: -0.436

RRIRPRPPRLPRPRPRPSKCPRP
shrunken log2 fold change: -0.0749

RRIRPRPPRLPRPRPRPSKWPRP
shrunken log2 fold change: -0.242

RRIRPRPPRLPRPRPRPSQTPRP
shrunken log2 fold change: 0.265

RRIRPRPPRLPRPRPRPSRAPRP
shrunken log2 fold change: 0.11

RRIRPRPPRLPRPRPRPSSWPRP
shrunken log2 fold change: 0.104

RRIRPRPPRLPRPRPRPSTEPRP
shrunken log2 fold change: -0.0218

RRIRPRPPRLPRPRPRPSTGPRP
shrunken log2 fold change: -0.263

RRIRPRPPRLPRPRPRPSWFPRP
shrunken log2 fold change: -0.248

RRIRPRPPRLPRPRPRPSWNPRP
shrunken log2 fold change: -0.158

RRIRPRPPRLPRPRPRPTAGPRP
shrunken log2 fold change: 0.252

RRIRPRPPRLPRPRPRPTDSPRP
shrunken log2 fold change: -0.245

RRIRPRPPRLPRPRPRPTFDPRP
shrunken log2 fold change: -0.0186

RRIRPRPPRLPRPRPRPTGLPRP
shrunken log2 fold change: 0.156

RRIRPRPPRLPRPRPRPTGMPRP
shrunken log2 fold change: 0.141

RRIRPRPPRLPRPRPRPTIMPRP
shrunken log2 fold change: -0.335

RRIRPRPPRLPRPRPRPTISPRP
shrunken log2 fold change: -0.218

RRIRPRPPRLPRPRPRPTKEPRP
shrunken log2 fold change: 0.193

RRIRPRPPRLPRPRPRPTMMPRP
shrunken log2 fold change: -0.216

RRIRPRPPRLPRPRPRPTMRPRP
shrunken log2 fold change: 0.744

RRIRPRPPRLPRPRPRPTMYPRP
shrunken log2 fold change: 0.125

RRIRPRPPRLPRPRPRPTNCPRP
shrunken log2 fold change: -0.169

RRIRPRPPRLPRPRPRPTNRPRP
shrunken log2 fold change: -0.104

RRIRPRPPRLPRPRPRPTNVPRP
shrunken log2 fold change: -0.0325

RRIRPRPPRLPRPRPRPTPSPRP
shrunken log2 fold change: 0.312

RRIRPRPPRLPRPRPRPTQGPRP
shrunken log2 fold change: 0.753

RRIRPRPPRLPRPRPRPTQNPRP
shrunken log2 fold change: 0.534

RRIRPRPPRLPRPRPRPTQWPRP
shrunken log2 fold change: 0.248

RRIRPRPPRLPRPRPRPTRDPRP
shrunken log2 fold change: 0.481

RRIRPRPPRLPRPRPRPTRLPRP
shrunken log2 fold change: 0.769

RRIRPRPPRLPRPRPRPTRSPRP
shrunken log2 fold change: 0.365

RRIRPRPPRLPRPRPRPTRVPRP
shrunken log2 fold change: 0.547

RRIRPRPPRLPRPRPRPTSFPRP
shrunken log2 fold change: 0.0509

RRIRPRPPRLPRPRPRPTSIPRP
shrunken log2 fold change: -0.375

RRIRPRPPRLPRPRPRPTSQPRP
shrunken log2 fold change: 0.0453

RRIRPRPPRLPRPRPRPTTDPRP
shrunken log2 fold change: 0.0167

RRIRPRPPRLPRPRPRPTVRPRP
shrunken log2 fold change: 0.0204

RRIRPRPPRLPRPRPRPTWNPRP
shrunken log2 fold change: 0.00306

RRIRPRPPRLPRPRPRPTYCPRP
shrunken log2 fold change: 0.00402

RRIRPRPPRLPRPRPRPVCSPRP
shrunken log2 fold change: -0.168

RRIRPRPPRLPRPRPRPVCVPRP
shrunken log2 fold change: 0.146

RRIRPRPPRLPRPRPRPVFMPRP
shrunken log2 fold change: -0.185

RRIRPRPPRLPRPRPRPVGAPRP
shrunken log2 fold change: 0.561

RRIRPRPPRLPRPRPRPVGKPRP
shrunken log2 fold change: -0.00576

RRIRPRPPRLPRPRPRPVGYPRP
shrunken log2 fold change: 0.394

RRIRPRPPRLPRPRPRPVHGPRP
shrunken log2 fold change: 0.0843

RRIRPRPPRLPRPRPRPVHHPRP
shrunken log2 fold change: -0.218

RRIRPRPPRLPRPRPRPVHPPRP
shrunken log2 fold change: 0.127

RRIRPRPPRLPRPRPRPVIKPRP
shrunken log2 fold change: -0.215

RRIRPRPPRLPRPRPRPVIMPRP
shrunken log2 fold change: -0.634

RRIRPRPPRLPRPRPRPVIWPRP
shrunken log2 fold change: -0.0495

RRIRPRPPRLPRPRPRPVLMPRP
shrunken log2 fold change: -0.161

RRIRPRPPRLPRPRPRPVLTPRP
shrunken log2 fold change: 0.0816

RRIRPRPPRLPRPRPRPVMVPRP
shrunken log2 fold change: 0.171

RRIRPRPPRLPRPRPRPVNDPRP
shrunken log2 fold change: -0.106

RRIRPRPPRLPRPRPRPVQDPRP
shrunken log2 fold change: -0.0784

RRIRPRPPRLPRPRPRPVSDPRP
shrunken log2 fold change: -0.0922

RRIRPRPPRLPRPRPRPVTAPRP
shrunken log2 fold change: 0.385

RRIRPRPPRLPRPRPRPVTGPRP
shrunken log2 fold change: -0.0902

RRIRPRPPRLPRPRPRPVTMPRP
shrunken log2 fold change: -0.297

RRIRPRPPRLPRPRPRPVVPPRP
shrunken log2 fold change: 0.134

RRIRPRPPRLPRPRPRPVWLPRP
shrunken log2 fold change: 0.577

RRIRPRPPRLPRPRPRPVWPPRP
shrunken log2 fold change: 0.341

RRIRPRPPRLPRPRPRPWAPPRP
shrunken log2 fold change: 0.153

RRIRPRPPRLPRPRPRPWATPRP
shrunken log2 fold change: -0.213

RRIRPRPPRLPRPRPRPWAYPRP
shrunken log2 fold change: -0.0727

RRIRPRPPRLPRPRPRPWCVPRP
shrunken log2 fold change: -0.133

RRIRPRPPRLPRPRPRPWDEPRP
shrunken log2 fold change: -0.151

RRIRPRPPRLPRPRPRPWEPPRP
shrunken log2 fold change: 0.0548

RRIRPRPPRLPRPRPRPWFMPRP
shrunken log2 fold change: -0.18

RRIRPRPPRLPRPRPRPWFPPRP
shrunken log2 fold change: -0.215

RRIRPRPPRLPRPRPRPWFQPRP
shrunken log2 fold change: -0.21

RRIRPRPPRLPRPRPRPWFWPRP
shrunken log2 fold change: 0.281

RRIRPRPPRLPRPRPRPWGPPRP
shrunken log2 fold change: 0.368

RRIRPRPPRLPRPRPRPWHAPRP
shrunken log2 fold change: -0.0857

RRIRPRPPRLPRPRPRPWIYPRP
shrunken log2 fold change: -0.584

RRIRPRPPRLPRPRPRPWKDPRP
shrunken log2 fold change: -0.0368

RRIRPRPPRLPRPRPRPWLEPRP
shrunken log2 fold change: -0.0732

RRIRPRPPRLPRPRPRPWLFPRP
shrunken log2 fold change: -0.0483

RRIRPRPPRLPRPRPRPWLLPRP
shrunken log2 fold change: -0.111

RRIRPRPPRLPRPRPRPWLYPRP
shrunken log2 fold change: -0.0765

RRIRPRPPRLPRPRPRPWMEPRP
shrunken log2 fold change: -0.0134

RRIRPRPPRLPRPRPRPWMLPRP
shrunken log2 fold change: -0.168

RRIRPRPPRLPRPRPRPWMSPRP
shrunken log2 fold change: -0.166

RRIRPRPPRLPRPRPRPWNHPRP
shrunken log2 fold change: -0.485

RRIRPRPPRLPRPRPRPWNIPRP
shrunken log2 fold change: -0.00871

RRIRPRPPRLPRPRPRPWNNPRP
shrunken log2 fold change: -0.561

RRIRPRPPRLPRPRPRPWNWPRP
shrunken log2 fold change: 0.3

RRIRPRPPRLPRPRPRPWPCPRP
shrunken log2 fold change: 0.0872

RRIRPRPPRLPRPRPRPWPTPRP
shrunken log2 fold change: 0.438

RRIRPRPPRLPRPRPRPWRRPRP
shrunken log2 fold change: 0.142

RRIRPRPPRLPRPRPRPWSPPRP
shrunken log2 fold change: 0.121

RRIRPRPPRLPRPRPRPWSRPRP
shrunken log2 fold change: 0.298

RRIRPRPPRLPRPRPRPWTAPRP
shrunken log2 fold change: -0.305

RRIRPRPPRLPRPRPRPWTQPRP
shrunken log2 fold change: -0.0236

RRIRPRPPRLPRPRPRPWWDPRP
shrunken log2 fold change: -0.204

RRIRPRPPRLPRPRPRPWWNPRP
shrunken log2 fold change: -0.227

RRIRPRPPRLPRPRPRPWYAPRP
shrunken log2 fold change: -0.107

RRIRPRPPRLPRPRPRPWYCPRP
shrunken log2 fold change: -0.111

RRIRPRPPRLPRPRPRPYAIPRP
shrunken log2 fold change: -0.219

RRIRPRPPRLPRPRPRPYAMPRP
shrunken log2 fold change: -0.265

RRIRPRPPRLPRPRPRPYCMPRP
shrunken log2 fold change: -0.505

RRIRPRPPRLPRPRPRPYCQPRP
shrunken log2 fold change: -0.223

RRIRPRPPRLPRPRPRPYCYPRP
shrunken log2 fold change: -0.798

RRIRPRPPRLPRPRPRPYDRPRP
shrunken log2 fold change: -0.319

RRIRPRPPRLPRPRPRPYDSPRP
shrunken log2 fold change: -0.977

RRIRPRPPRLPRPRPRPYFNPRP
shrunken log2 fold change: -0.619

RRIRPRPPRLPRPRPRPYGCPRP
shrunken log2 fold change: -0.0896

RRIRPRPPRLPRPRPRPYGIPRP
shrunken log2 fold change: -0.533

RRIRPRPPRLPRPRPRPYHPPRP
shrunken log2 fold change: -0.246

RRIRPRPPRLPRPRPRPYMAPRP
shrunken log2 fold change: -1.07

RRIRPRPPRLPRPRPRPYNDPRP
shrunken log2 fold change: -0.723

RRIRPRPPRLPRPRPRPYNQPRP
shrunken log2 fold change: -0.429

RRIRPRPPRLPRPRPRPYPGPRP
shrunken log2 fold change: -0.159

RRIRPRPPRLPRPRPRPYPNPRP
shrunken log2 fold change: -0.159

RRIRPRPPRLPRPRPRPYPWPRP
shrunken log2 fold change: -0.345

RRIRPRPPRLPRPRPRPYRIPRP
shrunken log2 fold change: -0.384

RRIRPRPPRLPRPRPRPYTHPRP
shrunken log2 fold change: -1.35

RRIRPRPPRLPRPRPRPYVPPRP
shrunken log2 fold change: -0.0652

RRIRPRPPRLPRPRPRPYWDPRP
shrunken log2 fold change: -0.376

RRIRPRPPRLPRPRPRPYWMPRP
shrunken log2 fold change: -1.06

RRIRPRPPRLPRPRPRPYYIPRP
shrunken log2 fold change: -0.88

RRIRPRPPRLPRPRPRPYYWPRP
shrunken log2 fold change: -0.0723

RRIRQRPPRLPRPRPRPAAQPRP
shrunken log2 fold change: -0.00152

RRIRQRPPRLPRPRPRPAAYPRP
shrunken log2 fold change: -0.169

RRIRQRPPRLPRPRPRPACEPRP
shrunken log2 fold change: -0.0795

RRIRQRPPRLPRPRPRPACGPRP
shrunken log2 fold change: 0.217

RRIRQRPPRLPRPRPRPACQPRP
shrunken log2 fold change: 0.15

RRIRQRPPRLPRPRPRPAFEPRP
shrunken log2 fold change: -0.0876

RRIRQRPPRLPRPRPRPAFNPRP
shrunken log2 fold change: 0.18

RRIRQRPPRLPRPRPRPAIWPRP
shrunken log2 fold change: -0.143

RRIRQRPPRLPRPRPRPAKAPRP
shrunken log2 fold change: -0.101

RRIRQRPPRLPRPRPRPALWPRP
shrunken log2 fold change: 0.144

RRIRQRPPRLPRPRPRPAPGPRP
shrunken log2 fold change: 0.417

RRIRQRPPRLPRPRPRPAPTPRP
shrunken log2 fold change: 0.709

RRIRQRPPRLPRPRPRPAQCPRP
shrunken log2 fold change: -0.017

RRIRQRPPRLPRPRPRPAQRPRP
shrunken log2 fold change: 0.302

RRIRQRPPRLPRPRPRPASKPRP
shrunken log2 fold change: 0.0503

RRIRQRPPRLPRPRPRPATVPRP
shrunken log2 fold change: 0.239

RRIRQRPPRLPRPRPRPAVKPRP
shrunken log2 fold change: -0.00195

RRIRQRPPRLPRPRPRPAWDPRP
shrunken log2 fold change: 1.54

RRIRQRPPRLPRPRPRPAWRPRP
shrunken log2 fold change: 0.497

RRIRQRPPRLPRPRPRPAYAPRP
shrunken log2 fold change: -0.189

RRIRQRPPRLPRPRPRPAYGPRP
shrunken log2 fold change: -0.341

RRIRQRPPRLPRPRPRPCDHPRP
shrunken log2 fold change: 0.00902

RRIRQRPPRLPRPRPRPCHLPRP
shrunken log2 fold change: -0.0134

RRIRQRPPRLPRPRPRPCITPRP
shrunken log2 fold change: -0.167
